Measured values from US20240352117A1 (QYUNS THERAPEUTICS, published 2024).

Legend:
[1] = target: T1, Human thymic stromal lymphopoietin (TSLP) (human, UniProt Q969D9 29-159); test: cell-based or functional assay
natural TSLP = test: cell-based or functional assay
Cynomolgus monkey TSLP = Cynomolgus monkey TSLP (cynomolgus monkey, UniProt A0A7N9CAT7 29-159); test: cell-based or functional assay
[2] = target: T1, Human thymic stromal lymphopoietin …; test: SPR, Biacore T200, 25 C, antibody captured on Protein A chip, human TSLP as analyte, 1:1 model, mean of three tests
Procedure: Biacore T200 was used to detect the affinity of QX008N (HZD8G2-57) binding to human TSLP. All processes were performed at 25° C. A commercial Protein A chip was used to immobilize an appropriate amount of antibody through the capture method so that Rmax was around 50RU and the capture flow rate was 10 μl/min. The antigen was diluted by gradient, the flow rate of the instrument was switch to 30 μl/min, and the antigen flowed through the reference channel and the fixed antibody channel in order from low to high concentration, with the antigen flowing through the buffer as a negative control. After each binding and dissociation was completed, the chip was regenerated with glycine at pH 1.5. The 1:1 binding model in Kinetics option was selected for fitting using the analysis software that comes with the instrument, and the binding rate constant kₐ, the dissociation rate constant kd and the equilibrium dissociation constant KD value of the antibody were calculated.
The detection method for known antibodies was the same as that for QX008N.

Cynomolgus monkey TSLP, sequence (A0A7N9CAT7 entry or part of it): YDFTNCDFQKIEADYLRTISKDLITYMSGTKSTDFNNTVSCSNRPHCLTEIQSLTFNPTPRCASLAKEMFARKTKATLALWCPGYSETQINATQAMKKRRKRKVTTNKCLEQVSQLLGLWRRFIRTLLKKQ

IC50 of inhibiting STAT5 phosphorylation in SW756-STAT5-Luciferase reporter gene cells induced by human TSLP [1] | IC50 of inhibiting the release of TARC (CCL17) from PBMCs induced by human TSLP [1] | IC50 of inhibiting the release of TARC (CCL17) from human whole blood induced by human TSLP [1] | IC50 of inhibiting STAT5 phosphorylation in SW756-STAT5-Luciferase reporter gene cells induced by natural TSLP (natural TSLP) | IC50 of inhibiting STAT5 phosphorylation in SW756-STAT5-Luciferase reporter gene cells induced by Cynomolgus monkey TSLP (Cynomolgus monkey TSLP) | Kd [2] | koff [2] | kon [2] | Binder
0.837 ng/mL | 77.1 ng/mL | 0.839 ng/mL | 0.462 ng/mL | 0.889 ng/mL | 17.5 pM | 2.99e-05 s⁻¹ | 1.74e+06 M⁻¹ s⁻¹ | QX008N (HZD8G2-57) (antibody, human IgG1, kappa, V domains shown, Humanized rabbit antibody from clone 8G2; Expressed in ExpiCHO-S cells and purified with Protein A; also called humanized 8G2) VH: EVQLVESGGGLVQPGGSLRLSCAASGFSLSSYYMSWVRQAPGKGLEWVGFISYGGSAYHATWAQGRFTISKDNSKNTLYLQMNSLRAEDTAVYYCAREFRSMTYGAEWGIWGQGTLVTVSS VL: AYQMTQSPSSVSASVGDRVTITCQASESIYDTLAWYQQKPGKAPKLLIYSASSLASGVPSRFSGSGSGTDFTLTISSLQPEDFATYYCQQGYTMPDVDKNPFGGGTKVEIKR
– | – | – | – | 1.88 ng/mL | – | – | – | Tezepelumab (antibody, V domains shown) VH: QMQLVESGGGVVQPGRSLRLSCAASGFTFRTYGMHWVRQAPGKGLEWVAVIWYDGSNKHYADSVKGRFTITRDNSKNTLNLQMNSLRAEDTAVYYCARAPQWELVHEAFDIWGQGTMVTVSS VL: SYVLTQPPSVSVAPGQTARITCGGNNLGSKSVHWYQQKPGQAPVLVVYDDSDRPSWIPERFSGSNSGNTATLTISRGEAGDEADYYCQVWDSSSDHVVFGGGTKLTVLG
